Measurements taken from article PMC2711571 (The Journal of Cell Biology, 2009).
Several values for one entry are separate records, joined by “and”; a condition that tells them apart may be missing. Equal entries are not always repeated.

Tests used:
[1] = molecular target: Human Met-Fc chimera (human) (UniProt P08581); assay: ELISA
[2] = molecular target: Rat tail collagen type I, neutralized fibrillar (rat) (UniProt P02454); assay: ELISA
[3] = molecular target: Met receptor (human (endogenous in HeLa)) (UniProt P08581); assay: cross-linking + co-IP
Chain of Met receptor (human (endogenous in HeLa)) (P08581 25-1390): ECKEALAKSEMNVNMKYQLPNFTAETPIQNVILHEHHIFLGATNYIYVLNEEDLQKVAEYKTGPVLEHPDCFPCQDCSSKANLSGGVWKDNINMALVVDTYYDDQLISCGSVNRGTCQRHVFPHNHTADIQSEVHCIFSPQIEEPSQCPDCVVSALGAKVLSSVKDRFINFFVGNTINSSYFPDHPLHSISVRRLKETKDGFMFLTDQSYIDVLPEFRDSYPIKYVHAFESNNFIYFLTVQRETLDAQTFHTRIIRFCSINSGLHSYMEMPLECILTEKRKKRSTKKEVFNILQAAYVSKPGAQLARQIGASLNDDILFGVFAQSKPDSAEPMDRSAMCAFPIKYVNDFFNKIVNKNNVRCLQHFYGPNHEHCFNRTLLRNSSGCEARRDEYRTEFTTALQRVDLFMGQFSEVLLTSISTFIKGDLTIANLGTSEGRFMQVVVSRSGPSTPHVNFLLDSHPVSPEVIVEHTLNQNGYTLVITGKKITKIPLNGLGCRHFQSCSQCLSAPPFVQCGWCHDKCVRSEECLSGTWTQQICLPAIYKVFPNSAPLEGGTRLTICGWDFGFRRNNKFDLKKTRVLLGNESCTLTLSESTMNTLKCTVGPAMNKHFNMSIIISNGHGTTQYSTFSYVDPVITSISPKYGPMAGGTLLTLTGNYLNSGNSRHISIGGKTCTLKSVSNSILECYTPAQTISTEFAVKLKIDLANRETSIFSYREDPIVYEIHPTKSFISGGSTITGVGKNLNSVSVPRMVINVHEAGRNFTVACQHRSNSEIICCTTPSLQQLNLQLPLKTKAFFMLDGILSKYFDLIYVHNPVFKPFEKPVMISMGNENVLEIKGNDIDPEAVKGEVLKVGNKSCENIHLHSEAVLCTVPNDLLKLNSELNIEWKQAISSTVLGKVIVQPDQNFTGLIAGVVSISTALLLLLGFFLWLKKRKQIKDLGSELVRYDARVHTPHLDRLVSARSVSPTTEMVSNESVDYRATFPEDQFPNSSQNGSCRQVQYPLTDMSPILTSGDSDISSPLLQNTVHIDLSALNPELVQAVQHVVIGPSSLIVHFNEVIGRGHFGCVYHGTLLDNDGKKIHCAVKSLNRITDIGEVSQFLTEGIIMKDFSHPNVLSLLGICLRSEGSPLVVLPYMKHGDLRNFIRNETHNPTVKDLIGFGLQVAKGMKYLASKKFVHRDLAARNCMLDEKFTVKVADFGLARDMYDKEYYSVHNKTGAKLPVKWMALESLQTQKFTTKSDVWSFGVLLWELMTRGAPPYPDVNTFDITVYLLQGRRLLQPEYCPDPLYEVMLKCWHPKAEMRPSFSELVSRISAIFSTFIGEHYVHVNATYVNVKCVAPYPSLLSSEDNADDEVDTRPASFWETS

Human Met-Fc chimera [4] = molecular target: T1, Human Met-Fc chimera (human, UniProt P08581 25-932, fully glycosylated); assay: ELISA
T1 sequence (P08581 25-932, change not shown): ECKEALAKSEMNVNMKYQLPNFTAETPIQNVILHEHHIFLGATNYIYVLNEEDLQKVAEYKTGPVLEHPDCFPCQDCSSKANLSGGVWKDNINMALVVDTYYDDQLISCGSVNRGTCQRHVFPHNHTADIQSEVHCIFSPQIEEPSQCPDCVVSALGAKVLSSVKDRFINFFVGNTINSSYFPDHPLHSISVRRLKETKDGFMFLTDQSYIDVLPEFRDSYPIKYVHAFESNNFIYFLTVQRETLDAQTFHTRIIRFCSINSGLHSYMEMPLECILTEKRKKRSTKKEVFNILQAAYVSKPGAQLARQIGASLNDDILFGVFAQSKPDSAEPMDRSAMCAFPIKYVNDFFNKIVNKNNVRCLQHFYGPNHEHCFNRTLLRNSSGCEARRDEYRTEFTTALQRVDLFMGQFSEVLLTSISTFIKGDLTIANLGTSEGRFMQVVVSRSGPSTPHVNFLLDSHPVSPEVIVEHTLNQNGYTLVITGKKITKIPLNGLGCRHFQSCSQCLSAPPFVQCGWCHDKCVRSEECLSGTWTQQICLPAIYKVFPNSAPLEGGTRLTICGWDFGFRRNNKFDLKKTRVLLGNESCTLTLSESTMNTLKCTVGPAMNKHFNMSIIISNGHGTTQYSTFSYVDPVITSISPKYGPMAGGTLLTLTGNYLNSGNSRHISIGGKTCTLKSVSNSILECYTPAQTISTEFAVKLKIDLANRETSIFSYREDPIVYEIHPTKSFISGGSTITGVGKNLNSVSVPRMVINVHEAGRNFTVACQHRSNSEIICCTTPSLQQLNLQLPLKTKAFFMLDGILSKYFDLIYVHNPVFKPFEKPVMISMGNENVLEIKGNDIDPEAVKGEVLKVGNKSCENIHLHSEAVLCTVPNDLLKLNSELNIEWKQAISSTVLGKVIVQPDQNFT

Human Met-Fc chimera [5] = molecular target: T1, Human Met-Fc chimera; assay: ELISA; remark: listed apart in the source

Chain of Rat tail collagen type I, neutralized fibrillar (rat) (P02454 152-1207, chain 1 of 2): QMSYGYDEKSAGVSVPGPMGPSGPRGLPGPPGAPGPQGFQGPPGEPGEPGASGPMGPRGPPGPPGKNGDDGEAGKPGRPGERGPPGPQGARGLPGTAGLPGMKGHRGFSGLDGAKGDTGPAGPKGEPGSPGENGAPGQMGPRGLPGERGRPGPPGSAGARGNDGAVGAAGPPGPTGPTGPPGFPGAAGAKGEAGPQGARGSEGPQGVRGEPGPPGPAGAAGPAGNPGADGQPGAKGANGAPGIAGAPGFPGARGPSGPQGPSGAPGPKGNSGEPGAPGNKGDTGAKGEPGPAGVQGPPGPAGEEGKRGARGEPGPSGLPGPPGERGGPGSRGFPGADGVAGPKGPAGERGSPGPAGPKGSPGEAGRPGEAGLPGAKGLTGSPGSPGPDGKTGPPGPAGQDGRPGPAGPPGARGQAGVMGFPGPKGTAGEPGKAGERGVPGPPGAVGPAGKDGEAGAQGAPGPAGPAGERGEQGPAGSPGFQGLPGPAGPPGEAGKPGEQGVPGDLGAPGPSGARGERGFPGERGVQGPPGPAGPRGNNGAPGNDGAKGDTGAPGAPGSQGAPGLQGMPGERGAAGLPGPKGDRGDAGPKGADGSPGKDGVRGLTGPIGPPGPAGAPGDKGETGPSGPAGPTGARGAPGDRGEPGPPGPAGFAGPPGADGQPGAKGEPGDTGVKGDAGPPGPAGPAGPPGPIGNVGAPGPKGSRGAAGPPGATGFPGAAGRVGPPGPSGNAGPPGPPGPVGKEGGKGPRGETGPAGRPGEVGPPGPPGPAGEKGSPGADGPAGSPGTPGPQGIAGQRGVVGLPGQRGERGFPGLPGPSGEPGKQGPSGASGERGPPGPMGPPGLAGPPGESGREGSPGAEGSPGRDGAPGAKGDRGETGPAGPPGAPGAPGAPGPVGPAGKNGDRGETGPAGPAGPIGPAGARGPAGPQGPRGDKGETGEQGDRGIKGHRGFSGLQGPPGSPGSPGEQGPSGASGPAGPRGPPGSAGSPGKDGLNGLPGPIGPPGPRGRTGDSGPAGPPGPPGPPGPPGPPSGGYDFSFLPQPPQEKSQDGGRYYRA
Chain of Rat tail collagen type I, neutralized fibrillar (rat) (P02466 86-1125, chain 2 of 2, further chain): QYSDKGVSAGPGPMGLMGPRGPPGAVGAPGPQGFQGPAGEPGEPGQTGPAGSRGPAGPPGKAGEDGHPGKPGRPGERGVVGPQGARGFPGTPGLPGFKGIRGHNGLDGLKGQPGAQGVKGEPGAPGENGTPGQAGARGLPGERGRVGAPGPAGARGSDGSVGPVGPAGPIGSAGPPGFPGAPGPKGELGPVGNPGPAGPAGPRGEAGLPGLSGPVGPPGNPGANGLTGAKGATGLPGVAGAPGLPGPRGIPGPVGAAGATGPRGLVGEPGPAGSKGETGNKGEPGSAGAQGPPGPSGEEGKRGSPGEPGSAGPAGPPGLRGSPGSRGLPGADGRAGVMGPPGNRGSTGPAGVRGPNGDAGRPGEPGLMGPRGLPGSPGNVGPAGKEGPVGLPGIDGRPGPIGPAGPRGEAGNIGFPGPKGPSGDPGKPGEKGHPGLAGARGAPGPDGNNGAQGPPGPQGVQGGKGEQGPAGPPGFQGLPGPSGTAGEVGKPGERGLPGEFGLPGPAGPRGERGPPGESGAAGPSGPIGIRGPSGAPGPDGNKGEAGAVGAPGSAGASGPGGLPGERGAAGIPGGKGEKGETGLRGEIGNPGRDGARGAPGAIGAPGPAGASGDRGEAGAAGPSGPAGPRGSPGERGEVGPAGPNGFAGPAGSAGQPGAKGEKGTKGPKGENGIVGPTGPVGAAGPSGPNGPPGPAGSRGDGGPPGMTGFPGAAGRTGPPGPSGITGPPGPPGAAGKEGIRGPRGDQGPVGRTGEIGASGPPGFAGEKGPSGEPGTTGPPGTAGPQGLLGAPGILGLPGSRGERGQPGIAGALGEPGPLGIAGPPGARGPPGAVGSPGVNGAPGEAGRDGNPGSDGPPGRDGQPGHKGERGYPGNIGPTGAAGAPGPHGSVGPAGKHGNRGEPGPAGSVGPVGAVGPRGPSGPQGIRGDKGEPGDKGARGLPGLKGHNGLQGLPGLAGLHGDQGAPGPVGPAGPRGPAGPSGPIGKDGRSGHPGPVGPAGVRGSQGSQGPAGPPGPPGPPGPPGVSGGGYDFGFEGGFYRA
Chain of Human Met-Fc chimera (human) (P08581 25-932, change not shown): as the sequence (P08581 25-932, change not shown) above

Row | Molecule | Kd [1] | Kd [2] | stoichiometry N [3] | IC50 (Human Met-Fc chimera [4]) | Kd (Human Met-Fc chimera [5])
1 | Decorin protein core (from UniProt P07585 31-359) (ligand) | 1.5 nM | 0.28 nM | 1 | – | –
2 | Internalin B (ligand) AKVQAETITVPTPIKQIFSDDAFAETIKDNLKKKSVTDAVTQNELNSIDQIIANNSDIKSVQGIQYLPNVTKLFLNGNKLTDIKPLANLKNLGWLFLDENKVKDLSSLKDLKKLKSLSLEHNGISDINGLVHLPQLESLYLGNNKITDITVLSRLTKLDTLSLEDNQISDIVPLAGLTKLQNLYLSKNHISDLRALAGLKNLDVLELFSQECLNKPINHQSNLVVPNTVKNTDGSLVTPEIISDDGDYEKPNVKWHLPEFTNEVSFIFYQPVTIGKAKARFHGRVTQPLKEVYTVSYDVDGTVIKTKVEAGTRITAPKPPTKQGYVFKGWYTEKNGGHEWNFNTDYMSGNDFTLYAVFKAETTEKAVNLTRYVKYIRGNAGIYKLPREDNSLKQGTLASHRCKALTVDREARNGGKLWYRLKNIGWTKAENLSLDRYDKMEYDKGVTAYARVRNASGNSVWTKPYNTAGAKHVNKLSVYQGKNMRILREAKTPITTWYQFSIGGKVIGWVDTRALNTFYKQSMEKPTRLTRYVSANKAGESYYKVPVADNPVKRGTLAKYKNQKLIVDCQATIEGQLWYRIRTSSTFIGWTKAANLRAQK | – | – | – | ~120 nM and ~180 nM | 2.16 nM
